Source: publication PMC10899793, “Toxin release by conditional remodelling of ParDE1 from Mycobacterium tuberculosis leads to gyrase inhibition” (Nucleic Acids Research, 2023)

T1: ParE1 toxin of Mycobacterium tuberculosis H37Rv (Mycobacterium tuberculosis H37Rv, UniProt P9WHG7 1-98)
T1 construct: also called Rv1959c; not shown: 6His-SUMO, N-terminal, cleaved
T1 sequence: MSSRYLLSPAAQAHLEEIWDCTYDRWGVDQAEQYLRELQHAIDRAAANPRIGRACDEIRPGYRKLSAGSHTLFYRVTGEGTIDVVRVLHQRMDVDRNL

B1: ParE2 toxin of Mycobacterium tuberculosis H37Rv (natural protein)
chain: MTRRLRVHNGVEDDLFEAFSYYADAAPDQIDRLYNLFVDAVTKRIPQAPNAFAPLFKHYRHIYLRPFRYYVAYRTTDEAIDILAVRHGMENPNAVEAEISGRTFE
B2: ParD1 antitoxin of Mycobacterium tuberculosis H37Rv (natural protein)
chain: MGKNTSFVLDEHYSAFIDGEIAAGRYRSASEVIRSALRLLEDRETQLRALREALEAGERSGSSTPFDFDGFLGRKRADASRGR
notes: Antitoxin ParD1, gene parD1 (rv1960c), M. tuberculosis H37Rv; printed mass 9.21 kDa; residues are numbered up to R83; also called primary ParD1; auxiliary ParD1

Legend:
[1] = target: Mycobacterium tuberculosis DNA gyrase holoenzyme GyrB2A2 (Mycobacterium tuberculosis) (UniProt P9WG47)
Chain of Mycobacterium tuberculosis DNA gyrase holoenzyme GyrB2A2 (Mycobacterium tuberculosis) (P9WG47 whole entry, chain 1 of 2): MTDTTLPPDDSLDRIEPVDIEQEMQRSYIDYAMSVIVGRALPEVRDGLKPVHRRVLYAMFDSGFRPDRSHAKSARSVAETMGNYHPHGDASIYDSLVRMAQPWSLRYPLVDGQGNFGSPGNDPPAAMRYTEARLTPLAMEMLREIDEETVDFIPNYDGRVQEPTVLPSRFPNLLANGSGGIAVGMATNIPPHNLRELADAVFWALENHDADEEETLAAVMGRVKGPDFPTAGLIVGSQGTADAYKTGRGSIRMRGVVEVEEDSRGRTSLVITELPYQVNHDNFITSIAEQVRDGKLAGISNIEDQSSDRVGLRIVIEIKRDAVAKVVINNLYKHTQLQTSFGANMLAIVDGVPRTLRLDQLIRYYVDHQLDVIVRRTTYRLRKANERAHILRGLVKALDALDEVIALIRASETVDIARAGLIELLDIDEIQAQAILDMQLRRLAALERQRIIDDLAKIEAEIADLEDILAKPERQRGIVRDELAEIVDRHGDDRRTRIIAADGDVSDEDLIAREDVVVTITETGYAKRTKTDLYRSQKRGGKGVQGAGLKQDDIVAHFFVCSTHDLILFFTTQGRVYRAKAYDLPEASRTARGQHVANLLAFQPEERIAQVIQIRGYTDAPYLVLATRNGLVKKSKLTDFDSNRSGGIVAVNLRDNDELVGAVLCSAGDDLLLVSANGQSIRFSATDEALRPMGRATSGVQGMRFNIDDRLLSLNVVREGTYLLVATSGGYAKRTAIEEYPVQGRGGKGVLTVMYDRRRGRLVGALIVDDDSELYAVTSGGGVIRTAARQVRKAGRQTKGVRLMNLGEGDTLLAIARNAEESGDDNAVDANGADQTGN
Chain of Mycobacterium tuberculosis DNA gyrase holoenzyme GyrB2A2 (Mycobacterium tuberculosis) (P9WG45 whole entry, chain 2 of 2, further chain): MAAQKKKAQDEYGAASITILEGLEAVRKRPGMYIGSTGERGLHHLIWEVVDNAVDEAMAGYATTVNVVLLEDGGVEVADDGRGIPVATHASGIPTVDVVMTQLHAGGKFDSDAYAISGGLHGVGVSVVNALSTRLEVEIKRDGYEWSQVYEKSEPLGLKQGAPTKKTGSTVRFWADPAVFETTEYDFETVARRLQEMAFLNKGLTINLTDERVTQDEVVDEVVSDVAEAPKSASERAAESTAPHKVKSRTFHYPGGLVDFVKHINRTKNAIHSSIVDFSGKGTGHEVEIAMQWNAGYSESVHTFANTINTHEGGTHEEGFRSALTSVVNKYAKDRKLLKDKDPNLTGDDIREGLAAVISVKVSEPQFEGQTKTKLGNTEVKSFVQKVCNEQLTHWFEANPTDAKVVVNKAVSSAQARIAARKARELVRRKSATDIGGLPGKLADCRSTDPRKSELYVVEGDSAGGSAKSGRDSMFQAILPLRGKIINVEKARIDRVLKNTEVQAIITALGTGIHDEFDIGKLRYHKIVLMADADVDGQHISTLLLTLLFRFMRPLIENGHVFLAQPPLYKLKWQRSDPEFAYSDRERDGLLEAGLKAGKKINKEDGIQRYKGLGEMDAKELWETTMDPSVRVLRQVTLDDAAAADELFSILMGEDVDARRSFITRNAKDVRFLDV

[2] = target: T1, ParE1 toxin of Mycobacterium …; assay: SEC; conditions: both partners purified
crystal structure = target: the molecule itself; assay: crystal structure
[3] = target: T1, ParE1 toxin of Mycobacterium …; assay: mass photometry; conditions: both partners purified

Binder | linearisation of supercoiled pSG483 in the M. tuberculosis gyrase DNA relaxation (cleavage) assay; ParE2 titrated against constant GyrB2A2 (31.25 nM); value at the highest concentration tested (% of substrate pSG483 linearised) [1] | stoichiometry N [2] | stoichiometry N (crystal structure) | stoichiometry N [3]
B1 | 50 |  |  | 
B2 |  | 2 ParD1 per ParE1 (4:2 heterohexamer) | 4 | 1 ParD1 per ParE1 (2:2 heterotetramer)
